Experimental data: patent publication US20220125947A1

B1: VG9B147 (antibody, human IgG1, lambda, V domains shown)
VH: QVQLQESGPGLVNPSETLSLTCTVSGGSISGYFWNWIRQPPGKGLEWIGYIFYSGSTNYNPSLKSRVTISVDTSKNQFSLKLSSVTAADTAIYYCAREGKWELRSTFDIWGQGTMVTVSS
VL: SSELTQDPAVSVALGQTVRITCQGDSLRSYYATWYQQKPGQAPILVIYGENNRPSGIPDRFSGSRSGNTASLTITGAQAEDEADYYCNSRDTGDHHLVFGGGTKLTVLG
B2: VG9B379 (antibody, human IgG1, lambda, V domains shown)
VH: EVQLVQSGPEVKKPGASVKVSCKASGYTFTGDYIHWVRQVPGQGLEWMGWINPNSGGTNYAQKFQGRVTMTRDTSISTAFMELSRLRSDDTAVYYCAREGGVAPAAPDAFDIWGQGTMVTVSS
VL: SSELTQDPAVSVALGQTVRITCQGDSLRSYYARWYQQKPGQAPVVVIYGKNNRPSGIPDRFSGSSSGNTASLTITGAQAEDEADYYCNSRDSSGNHRVFGGGTKLTVLG
B3: VG9B372 (antibody, human IgG1, kappa, V domains shown)
VH: QVQLQESGPGLVKPSQTLSLTCTVSGGSISNGGFYWSWIRQHPGKGLEWLGYINYSGSTYYNPSLESRGTISLDTSKNQFSLKLRSVTAADTAVYYCARDRNYEWNFDLWGRGTLVTVSS
VL: EIVMTQSPATLSLSPGEGATLSCRASQSVSSYLAWYQQKPGQAPRLLVYDASNRATGIPARFSGSGSGTAFTLTITSLEPEDFVVYYCQQRSNWPLTFGGGTKLEIKR
B4: VG9B387 (antibody, human IgG1, lambda, V domains shown)
VH: EVQLVESGAEVKKPGASVKVSCKASGFTFTGYYLQWVRQAPGQGLEWMGWINPNSGYTDYAQRFQDRVTMTRDTSINTAYMELSRLRSDDTAVYYCARLDDAFDVWGQGTMVTVSS
VL: SYELTQDPAVSVALGQTVRITCQGDSLRNYYAIWYQQKPGQAPVLVIFGKNNRPSGIPDRFSGSSSGTTASLTITGTQAEDEADYYCNSRDSSGNHWVFGGGTKLTVLG
B5: VG9B392 (antibody, human IgG1, lambda, V domains shown)
VH: QVQLVQSGAEVKRPGASAKVSCKTSGYTFTGYYIHWVRQAPGQGLEWMGWINPNSGYTNSAQKFQGRVSMTRDTSISTVYMELSRLRSDDTAVYYCAREDDAFDIWGQGTLVTVSS
VL: SSELTQDPAVSVALGQTVRITCQGDSLRSYYARWYQQKPGQAPVLVIYGKNNRPSGIPDRFSGSSSGDTASLTITGALAEDEADYYCNSRDNSGNHVVFGGGTKVTVLG
B6: VG9B114 (antibody, human IgG1, kappa, V domains shown)
VH: EVQLVESGGDLVQPGGSLRLSCAASGFTFSRYDMHWVRQATGKGLEWVSAIGSAGDTYYPGSVKGRFTISRENAKNSLYLQMNSLRAGDTAVYYCARGKWELRDAFDIWGQGTMVTVSS
VL: DIVMTQSPSFLSASVGDRVTITCRASQGIHSYLAWYQQKPGKAPKLLIYVASTLQSGVPSRFSGSRSGTEFTLTISSLQPEDFATYYCQQLNSYPYTFGQGTKLEIKR
B7: VG9B112 (antibody, human IgG1, kappa, V domains shown)
VH: QVQLQQSGPGLVKPSQTLSLTCAISGDSVSSNSAAWNWIRQSPSRGLEWLGGTYYRSKWFNNYAVSVKSRITINPDTSTNQFSLQLNSVTPADTAVYYCARGEWGLRDAFDIWGQGTMVTVSS
VL: DIQMTQSPSFLSASVGDRVIITCRASQGIHSYLAWYQQKPGKVPKLLIYVASTLQSGVPSRFSGSGSGTEFTLTISSLQPEDFATYYCQQLNSYPWTFGQGTKLEIKR
B8: VG9B208 (antibody, human IgG1, lambda, V domains shown)
VH: QVQLQESGPGLVKPSETLSLTCTVSGGSISGYYWSWIRQPPGKGLELIGYIFYSGSINYNPSLKNRVTISLDTSKNQFSLKLTSVTAADTAVYYCARVGKWELRSSFDIWGQGTMVTVSS
VL: QSVLTQPPSVSAAPGQKVTISCSGSTSNIGNNDVSWYQQLPGTAPKLLIYDNNKRPSGIPDRFSGSKSGTSATLGITGLQTGDEADYYCGTWDSSLSVWVFGGGTKLTVLG
B9: VG9B87 (antibody, human IgG1, kappa, V domains shown)
VH: QVQLVESGAEVKKPGASVKVSCKASGYTFTSEYIHWVRQAPGQGLEWMGIINPSGGSTSYAQRFQGRVTMTRDTSTSTVYMEVNSLRSEDTAVYYCARERGYSYGSFDYWGQGTLVTVSS
VL: EIVLTQSPSFLSASAGDRVTITCRASQGISSYLAWYQQKPEKAPKLLIYAASTLQSGVPSRFSGSGSGTEFTLTISSLQPEDFATYYCQQFNSYSLTFGGGTKLEIKR
B10: VG9B177 (antibody, human IgG1, lambda, V domains shown)
VH: QVQLQESGPGLVKPSETLSLTCTVSGGSINNYFWSWIRQPPGKGLEWIGYIFYSGSTNYNPSLKSRVTISIDTSKNQFSLKVNSVTAADTAVYYCARVGKWELRTAFDIWGQGTMVTVSS
VL: QSALTQPASVSGSPGQSITISCTGTSSDVADYNYVSWYQQHPGKAPKLMIYEVSNRPSGVSNRFSGSKSGNTASLTISGLQAEDEADYYCCSYTSSFTVVFGGGTKVTVLG
B11: VG9B47 (antibody, human IgG1, kappa, V domains shown)
VH: QVQLVQSGAEVKKPGSSVKVSCKASGGSFSNYAISWMRQAPGQGLEWMGGIIPFFGTPDYAQKFQGRVTITADKSTSTAYMELSSLRSEDTAVYYCSTGGGYGDYDYYYGINVWGQGTMVTVSS
VL: DIVMTQSPLSSPVDLGQPASISCRSSQSLVHSDGNTYLSWLQQRPGQPPRLLIYKISNRFSGVPDRFSGSGAGTDFTLKISRVEAEDVGVYYCMQAKEFPLTLGGGTKVDIKR
B12: VG9B77 (antibody, human IgG1, kappa, V domains shown)
VH: EVQLVESGAEVMKPGSSVKVSCKASGGTFSSYAISWVRQAPEQGLEWMGGIIPFFGTADYAQKFQGRVTITADKSTNTAYMELTSLRSEDTAVYYCATATVTTDYYYGMDVWGQGTMVTVSS
VL: EIVMTQSPLFSPVTLGQPASISCRSSQSLVHSDGNTYLSWLQQRPGQPPRLLIYEISNRFTGVPDRFSGSGAGTDFTLKISRVEAEDVGVYYCMQARQFPLTFGGGTKVEIKR
B13: VG9B96 (antibody, human IgG1, kappa, V domains shown)
VH: EVQLVQSGAEVKKPGSSVKVSCKASGGTFSNYAISWVRLAPGQGLEWMGGIIPIFSAGTYAQRFQGRVTITADKSTSTAYMELNSLRSEDTAVYYCSSNSGTYYDYYYGMDVWGQGTMVTVSS
VL: DIVMTQSPLSSHVTLGQPASISCRSSQSLVHSDGNTYLSWLQQRPGQPPRLLIYKIFNRLSGVPDRFSGSGAGTDFTLKISRVEAEDVGVYYCMQAKQFPLTFGGGTKVEIKR

Key:
[1] = target: Vg5/Vd2 T cell receptor expressed on SKW3 cells (UniProt A0JD36); test: flow cytometry, dose-response binding at 37 C, SKW3 cells expressing Vg5/Vd2
[2] = target: Vg9/Vd2 T cell receptor expressed on SKW3_4 cells (UniProt Q99603); test: flow cytometry, dose-response binding at 37 C, SKW3_4 cells expressing Vg9/Vd2
[3] = target: Vg9/Vd1 T cell receptor expressed on SKW3 cells (UniProt Q99603); test: flow cytometry, dose-response binding at 37 C, SKW3 cells expressing Vg9/Vd1
[4] = target: Vg5/Vd2 TCR on SKW3 cells (UniProt A0JD36); test: flow cytometry DRC binding 37 C, SKW3 cells expressing Vg5/Vd2
[5] = target: Vg9/Vd1 TCR on SKW3 cells (UniProt Q99603); test: flow cytometry DRC binding 37 C, SKW3 cells expressing Vg9/Vd1
[6] = target: Vg9/Vd2 TCR on SKW3_4 cells (UniProt Q99603); test: flow cytometry DRC binding 37 C, SKW3_4 cells expressing Vg9/Vd2
Vg9/Vd2 TCR on SKW3_4 cells, sequence (Q99603 21-122, chain 1 of 2): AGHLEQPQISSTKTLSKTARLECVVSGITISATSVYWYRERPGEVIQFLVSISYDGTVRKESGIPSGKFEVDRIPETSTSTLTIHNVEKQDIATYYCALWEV
Vg9/Vd2 TCR on SKW3_4 cells, sequence (A0JD36 20-115, chain 2 of 2, further chain): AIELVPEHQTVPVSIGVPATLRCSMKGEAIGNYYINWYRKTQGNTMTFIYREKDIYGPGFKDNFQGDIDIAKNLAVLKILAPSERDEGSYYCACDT

Vg5/Vd2 T cell receptor expressed on SKW3 cells, sequence (A0JD36 20-115): as the sequence (A0JD36 20-115, chain 2 of 2, further chain) above
Vg5/Vd2 TCR on SKW3 cells, sequence (A0JD36 20-115): as the sequence (A0JD36 20-115, chain 2 of 2, further chain) above
Vg9/Vd2 T cell receptor expressed on SKW3_4 cells, sequence (Q99603 21-122, chain 1 of 2): as the sequence (Q99603 21-122, chain 1 of 2) above
Vg9/Vd2 T cell receptor expressed on SKW3_4 cells, sequence (A0JD36 20-115, chain 2 of 2, further chain): as the sequence (A0JD36 20-115, chain 2 of 2, further chain) above
Vg9/Vd1 T cell receptor expressed on SKW3 cells, sequence (Q99603 21-122): as the sequence (Q99603 21-122, chain 1 of 2) above
Vg9/Vd1 TCR on SKW3 cells, sequence (Q99603 21-122): as the sequence (Q99603 21-122, chain 1 of 2) above

Binder | Max. Activity (fold over background) [1] | Max. Activity (fold over background) [2] | Max. Activity (fold over background) [3] | Max. Activity (fold over background) [4] | Max. Activity (fold over background) [5] | Max. Activity (fold over background) [6]
B1 | 69.8 | 30.5 | 1.59 |  |  | 
B2 |  |  |  | 260 | 295 | 160
B3 | 171 | 127 | 1.02 |  |  | 
B4 |  |  |  | 261 | 435 | 201
B5 |  |  |  | 281 | 295 | 154
B6 | 226 | 176 | 8.38 |  |  | 
B7 |  |  |  | 217 | 328 | 227
B8 | 203 | 177 | 2.15 |  |  | 
B9 | 51.6 | 139 | 1.4 |  |  | 
B10 | 193 | 161 | 1.28 |  |  | 
B11 |  |  |  | 212 | 308 | 162
B12 |  |  |  | 148 | 137 | 102
B13 |  |  |  | 224 | 245 | 126
